Tests used:
[1] = molecular target: AVE018 coat protein (ssRNA phage AVE018 (metagenomic sequence)); assay: non-reducing SDS-PAGE; purified VLPs in 20 mM Tris-HCl pH 8.0, 50% glycerol mixed with Laemmli buffer with or without 5% 2-mercaptoethanol, 10 min at 95 °C, 15% gel; disulfide-linked CP oligomers
[2] = molecular target: NFZC01007443 coat protein (ssRNA phage NFZC01007443 (metagenomic sequence)); assay: as above

Substance | stoichiometry N [1] | stoichiometry N [2]
AVE018 coat protein (natural protein) | 2 | 
NFZC01007443 coat protein (natural protein) |  | 5
